Source: PMC11479587

Molecular target: Ssa1 (yeast (S. cerevisiae)) (UniProt P10591)
Sequence (P10591 whole entry): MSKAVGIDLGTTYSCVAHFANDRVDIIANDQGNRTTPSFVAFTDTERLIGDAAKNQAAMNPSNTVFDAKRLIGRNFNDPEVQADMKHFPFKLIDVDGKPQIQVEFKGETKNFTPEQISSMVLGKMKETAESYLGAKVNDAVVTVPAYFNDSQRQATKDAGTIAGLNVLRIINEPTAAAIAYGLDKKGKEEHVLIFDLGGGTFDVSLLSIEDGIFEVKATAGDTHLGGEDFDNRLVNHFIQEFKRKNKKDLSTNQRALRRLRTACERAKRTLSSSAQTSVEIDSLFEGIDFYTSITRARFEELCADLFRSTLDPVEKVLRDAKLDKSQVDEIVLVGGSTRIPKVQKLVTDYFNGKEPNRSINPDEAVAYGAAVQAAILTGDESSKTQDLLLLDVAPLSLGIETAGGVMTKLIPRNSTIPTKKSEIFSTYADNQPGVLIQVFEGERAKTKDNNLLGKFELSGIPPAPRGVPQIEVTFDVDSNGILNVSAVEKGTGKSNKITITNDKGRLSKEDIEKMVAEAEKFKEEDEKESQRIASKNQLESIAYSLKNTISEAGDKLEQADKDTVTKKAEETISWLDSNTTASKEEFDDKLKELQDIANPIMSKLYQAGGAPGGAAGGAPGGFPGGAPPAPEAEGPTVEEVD

Sse1-2 variant (N572Y E575A) (from UniProt P32589 1-693) (natural protein)
renaturation of heat-aggregated GFP by Ssa1-Sis1 (1 µM each); concentration of Sse1-2 against Sse1 WT needed for the same activity; no inhibition up to 2 µM Sse1-2: 20 times
